# Source: patent US8178324B2, “Deracemisation of amines” (Ingenza Limited, priority 2002, dated 2012)
# System: CCCCCN
# Experiment: Colorimetric hydrogen peroxide amine oxidase assay, purified mutant enzyme (N336S)
# Format: biochemical, Aspergillus niger
# Conditions: other: purified N336S mutant; 30.0 °C
# Procedure: The wild-type enzyme was also purified by the same protocol and the two enzymes compared for substrate specificity and enantioselectivity.
# The mutated gene was also sequenced and the sequence is shown in SEQ ID NO: 2. There was a single amino acid change from the wild-type enzyme with serine replacing asparagine at position 336.
# LB medium (6×300 ml) containing ampicillin (100 μg·ml^−1) in 1 L baffled flasks was inoculated with a single colony of monoamine oxidase mutant from an LB agar plate. Cultures were incubated at 30° C. for 22 hours (OD600˜3.6) then harvested and washed with phosphate buffer (50 mM, pH 8) to yield a yellow-brown pellet (11.2 g).
# The pellet was resuspended in Tris/HCl buffer (25 mM, pH 7.8, 30 ml) and sonicated on ice (30 s on, 30 s off for 10 minutes). The suspension was then centrifuged (20,000 rpm, 4° C.) until clear supernatant was obtained and the supernatant dialysed against Tris/HCl buffer (25 mM, pH 7.8). […]
# The spectrophotometer was blanked against assay mixture and HRP. Enzyme was added and the absorbance at 500 nm measured at 3 s intervals for a 10 minute period.
# The Km values were calculated using ‘KaleidaGraph for Windows’ (Synergy Software). For calculation of the kcat, the active enzyme concentration was determined by estimating the FAD content from the absorbance at 458 nm using an extinction coefficient of 11 mM^−1 cm^−1 (see ref 12).
substance,measurement,value
mutant A. niger monoamine oxidase (N336S) (Aspergillus niger; A300V/K348M/L304V/N336S/R450G),Km,400 µM
same,kcat,1.93 s⁻¹
